Test results: paper PMC2756588

T1: Abp1, P15891
T1 sequence (P15891 535-592, looked up): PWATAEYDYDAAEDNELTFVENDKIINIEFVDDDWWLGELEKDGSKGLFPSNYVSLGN

T2: Bbc1, P47068
T2 sequence (P47068 1-78, looked up): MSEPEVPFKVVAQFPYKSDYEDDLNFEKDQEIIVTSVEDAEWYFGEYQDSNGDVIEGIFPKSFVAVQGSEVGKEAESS

T3: Boi1, P38041
T3 sequence (P38041 1-86, looked up): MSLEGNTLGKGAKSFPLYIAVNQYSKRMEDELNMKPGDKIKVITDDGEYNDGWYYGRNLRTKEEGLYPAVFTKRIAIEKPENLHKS

T4: Boi2, P39969
T4 sequence (P39969 32-116, looked up): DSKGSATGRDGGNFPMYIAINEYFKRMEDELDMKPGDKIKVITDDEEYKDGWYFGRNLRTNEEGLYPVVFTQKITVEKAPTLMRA

T5: Bud14, P27637
T5 sequence (P27637 247-328, looked up): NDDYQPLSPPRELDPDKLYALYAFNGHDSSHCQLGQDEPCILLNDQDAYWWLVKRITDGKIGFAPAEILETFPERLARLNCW

T6: Bzz1-1, P38822
T6 sequence (P38822 478-572, looked up): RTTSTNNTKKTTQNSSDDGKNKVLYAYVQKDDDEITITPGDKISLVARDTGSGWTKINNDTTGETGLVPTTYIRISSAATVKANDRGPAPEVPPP

T7: Bzz1-2, P38822
T7 sequence (P38822 568-633, looked up): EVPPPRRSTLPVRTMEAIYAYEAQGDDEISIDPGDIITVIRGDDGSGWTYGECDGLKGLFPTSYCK

T8: Cdc25, P04821
T8 sequence (P04821 50-136, looked up): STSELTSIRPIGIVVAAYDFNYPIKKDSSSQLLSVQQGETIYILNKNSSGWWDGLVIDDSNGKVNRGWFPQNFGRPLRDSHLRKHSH

T9: Cyk3, Q07533
T9 sequence (Q07533 1-83, looked up): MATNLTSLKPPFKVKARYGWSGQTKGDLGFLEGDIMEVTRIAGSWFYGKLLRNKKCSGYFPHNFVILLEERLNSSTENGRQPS

T10: Fus1, P11710
T10 sequence (P11710 432-512, looked up): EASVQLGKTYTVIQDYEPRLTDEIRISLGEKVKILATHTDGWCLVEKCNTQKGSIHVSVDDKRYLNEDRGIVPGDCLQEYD

T11: Hof1, Q05080
T11 sequence (Q05080 590-669, looked up): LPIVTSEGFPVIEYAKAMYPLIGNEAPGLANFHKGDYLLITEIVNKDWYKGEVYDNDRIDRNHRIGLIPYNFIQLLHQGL

T12: Hse1, P38753
T12 sequence (P38753 208-285, looked up): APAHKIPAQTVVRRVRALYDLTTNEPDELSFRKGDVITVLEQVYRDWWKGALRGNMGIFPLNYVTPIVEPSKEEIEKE

T13: Lsb1, P53281
T13 sequence (P53281 45-122, looked up): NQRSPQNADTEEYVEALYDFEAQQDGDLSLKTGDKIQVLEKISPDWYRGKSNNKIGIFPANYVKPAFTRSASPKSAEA

T14: Lsb3, P43603
T14 sequence (P43603 385-451, looked up): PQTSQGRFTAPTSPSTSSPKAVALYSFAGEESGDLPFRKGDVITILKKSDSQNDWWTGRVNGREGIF

T15: Lsb4, P32793
T15 sequence (P32793 402-468, looked up): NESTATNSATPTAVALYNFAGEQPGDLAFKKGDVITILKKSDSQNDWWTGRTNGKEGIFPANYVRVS

T16: Myo5, Q04439
T16 sequence (Q04439 1072-1160, looked up): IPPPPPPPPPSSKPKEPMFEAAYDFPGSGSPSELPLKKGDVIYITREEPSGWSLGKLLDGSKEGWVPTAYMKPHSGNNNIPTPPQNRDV

T17: Nbp2, Q12163
T17 sequence (Q12163 103-180, looked up): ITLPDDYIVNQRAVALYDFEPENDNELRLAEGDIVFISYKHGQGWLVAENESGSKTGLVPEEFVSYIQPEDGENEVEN

T18: Pex13, P80667
T18 sequence (P80667 295-386, looked up): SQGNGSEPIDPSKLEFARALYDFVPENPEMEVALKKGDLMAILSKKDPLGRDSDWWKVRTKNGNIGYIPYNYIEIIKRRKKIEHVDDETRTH

T19: Pin3, Q06449
T19 sequence (Q06449 53-122, looked up): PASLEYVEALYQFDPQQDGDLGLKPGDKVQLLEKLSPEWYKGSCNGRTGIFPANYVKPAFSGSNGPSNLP

T20: Sla1-2, P32790
T20 sequence (P32790 60-140, looked up): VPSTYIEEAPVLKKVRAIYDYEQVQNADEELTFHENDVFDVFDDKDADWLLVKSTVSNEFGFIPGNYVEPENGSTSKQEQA

T21: Sla1-3, P32790
T21 sequence (P32790 344-424, looked up): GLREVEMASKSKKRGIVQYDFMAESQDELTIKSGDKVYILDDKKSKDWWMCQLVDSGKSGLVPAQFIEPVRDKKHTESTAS


How the values were obtained:
Assay in all cases: SPOT array
Abp1, P15891 = target: T1, Abp1, P15891; details: median of control spots 935
Bbc1, P47068 = target: T2, Bbc1, P47068; details: median of control spots 796
Bem1-1, P29366 = details: median of control spots 4282
Sequence of Bem1-1, P29366 (P29366 55-141): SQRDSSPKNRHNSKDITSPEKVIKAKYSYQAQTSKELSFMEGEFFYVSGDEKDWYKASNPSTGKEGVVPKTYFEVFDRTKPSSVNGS

Bem1-2, P29366 = details: median of control spots 4347
Sequence of Bem1-2, P29366 (P29366 139-227): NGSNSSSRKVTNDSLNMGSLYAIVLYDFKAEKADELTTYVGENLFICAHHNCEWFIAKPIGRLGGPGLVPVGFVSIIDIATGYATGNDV

Boi1, P38041 = target: T3, Boi1, P38041; details: median of control spots 1162
Boi2, P39969 = target: T4, Boi2, P39969; details: median of control spots 1161
Bud14, P27637 = target: T5, Bud14, P27637; details: median of control spots 956
Bzz1-1, P38822 = target: T6, Bzz1-1, P38822; details: median of control spots 4446
Bzz1-2, P38822 = target: T7, Bzz1-2, P38822; details: median of control spots 4538
Cdc25, P04821 = target: T8, Cdc25, P04821; details: median of control spots 969
Cyk3, Q07533 = target: T9, Cyk3, Q07533; details: median of control spots 1451
Fus1, P11710 = target: T10, Fus1, P11710; details: median of control spots 1200
GST = details: median of control spots 978
Hof1, Q05080 = target: T11, Hof1, Q05080; details: median of control spots 4086
Hse1, P38753 = target: T12, Hse1, P38753; details: median of control spots 1727
Lsb1, P53281 = target: T13, Lsb1, P53281; details: median of control spots 388
Lsb3, P43603 = target: T14, Lsb3, P43603; details: median of control spots 406
Lsb4, P32793 = target: T15, Lsb4, P32793; details: median of control spots 397
Myo3, P36006 = details: median of control spots 468
Myo5, Q04439 = target: T16, Myo5, Q04439; details: median of control spots 471
Nbp2, Q12163 = target: T17, Nbp2, Q12163; details: median of control spots 357
Pex13, P80667 = target: T18, Pex13, P80667; details: median of control spots 1341
Pin3, Q06449 = target: T19, Pin3, Q06449; details: median of control spots 2171
Rvs167, P39743 = details: median of control spots 2707
Sequence of Rvs167, P39743 (P39743 419-482): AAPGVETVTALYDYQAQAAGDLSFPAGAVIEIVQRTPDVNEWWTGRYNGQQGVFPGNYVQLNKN

Sho1, P40073 = details: median of control spots 1148
Sequence of Sho1, P40073 (P40073 287-367): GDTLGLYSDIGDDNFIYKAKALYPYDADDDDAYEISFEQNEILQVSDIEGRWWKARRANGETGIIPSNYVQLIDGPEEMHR

Sla1-2, P32790 = target: T20, Sla1-2, P32790; details: median of control spots 712
Sla1-3, P32790 = target: T21, Sla1-3, P32790; details: median of control spots 5475

| Binder | SPOT intensity (Abp1, P15891) | SPOT intensity (Bbc1, P47068) | SPOT intensity (Bem1-1, P29366) | SPOT intensity (Bem1-2, P29366) | SPOT intensity (Boi1, P38041) | SPOT intensity (Boi2, P39969) | SPOT intensity (Bud14, P27637) | SPOT intensity (Bzz1-1, P38822) | SPOT intensity (Bzz1-2, P38822) | SPOT intensity (Cdc25, P04821) | SPOT intensity (Cyk3, Q07533) | SPOT intensity (Fus1, P11710) | SPOT intensity (GST) | SPOT intensity (Hof1, Q05080) | SPOT intensity (Hse1, P38753) | SPOT intensity (Lsb1, P53281) | SPOT intensity (Lsb3, P43603) | SPOT intensity (Lsb4, P32793) | SPOT intensity (Myo3, P36006) | SPOT intensity (Myo5, Q04439) | also measured |
| --- | --- | --- | --- | --- | --- | --- | --- | --- | --- | --- | --- | --- | --- | --- | --- | --- | --- | --- | --- | --- | --- |
| PHNPSPFFPPPDFND | 0 | 0 | 0 | 0 | 0 | 0 | 0 | 0 | 0 | 0 | 0 | 0 | 0 | 0 | 0 | 0 | 0 | 0 | 319 | 244 | SPOT intensity (Nbp2, Q12163): 0; SPOT intensity (Pex13, P80667): 70; SPOT intensity (Pin3, Q06449): 0; SPOT intensity (Rvs167, P39743): 0; SPOT intensity (Sho1, P40073): 0; SPOT intensity (Sla1-2, P32790): 0; SPOT intensity (Sla1-3, P32790): 0 |
| ERPKRRAPPPVPKKP | 673 | 282 | 0 | 279 | 0 | 0 | 0 | 160 | 791 | 4 | 0 | 0 | 0 | 0 | 57 | 326 | 188 | 89 | 358 | 180 | SPOT intensity (Nbp2, Q12163): 58; SPOT intensity (Pex13, P80667): 62; SPOT intensity (Pin3, Q06449): 11; SPOT intensity (Rvs167, P39743): 10; SPOT intensity (Sho1, P40073): 311; SPOT intensity (Sla1-2, P32790): 0; SPOT intensity (Sla1-3, P32790): 2610 |
